{"source": "paper PMC6719446", "about": "(The Journal of Cell Biology, 2019)", "binders": {"B1": {"name": "3xFlag-BIK (natural protein, UniProt Q13323 1-160, looked up)", "chain": "MSEVRPLSRDILMETLLYEQLLEPPTMEVLGMTDSEEDLDPMEDFDSLECMEGSDALALRLACIGDEMDVSLRAPRLAQLSEVAMHSLGLAFIYDQTEDIRDVLRSFMDGFTTLKENIMRFWRSPNPGSWVSCEQVLLALLLLLALLLPLLSGGLHLLLK"}}, "biological_target": "T1, Purified ASB11 bound on anti-Myc beads (human (ASB11 cDNA amplified from 293T …, UniProt Q8WXH4 1-323))", "T1 sequence (looked up)": "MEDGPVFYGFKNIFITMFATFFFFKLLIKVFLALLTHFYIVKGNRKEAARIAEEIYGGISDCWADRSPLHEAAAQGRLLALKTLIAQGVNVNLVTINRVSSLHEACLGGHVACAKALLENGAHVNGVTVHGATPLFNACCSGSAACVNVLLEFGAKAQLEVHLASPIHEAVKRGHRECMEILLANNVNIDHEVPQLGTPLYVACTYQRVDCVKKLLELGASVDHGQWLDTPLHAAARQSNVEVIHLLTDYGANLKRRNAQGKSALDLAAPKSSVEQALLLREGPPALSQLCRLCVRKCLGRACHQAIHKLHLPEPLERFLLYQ", "assay": "pull-down", "data": [{"binder": "B1", "values": [{"measurement": "binding result", "value": "binds"}]}]}
